Measured values published in patent US20120034160A1 (AbbVie / Abbott, published 2012).

T1: Recombinant Human IL-17 (human, UniProt Q16552 20-155, limits assumed)
T1 sequence (looked up): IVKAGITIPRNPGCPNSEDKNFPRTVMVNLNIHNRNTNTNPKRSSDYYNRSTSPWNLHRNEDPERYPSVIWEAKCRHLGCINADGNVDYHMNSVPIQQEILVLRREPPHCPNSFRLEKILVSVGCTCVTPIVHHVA


Key:
Recombinant Human IL-17 = molecular target: T1, Recombinant Human IL-17; experiment: cell-based or functional assay
Recombinant Human IL-1β = Recombinant Human IL-1β (human, UniProt P01584 117-269); experiment: cell-based or functional assay

Binder | C-terminal VD IL-17 Neutralization Assay EC50 (Recombinant Human IL-17) | N-Terminal VD IL-1β Neutralization Assay EC50 (Recombinant Human IL-1β) | N-terminal VD IL-17 Neutralization Assay EC50 (Recombinant Human IL-17) | C-Terminal VD IL-1β Neutralization Assay EC50 (Recombinant Human IL-1β)
DVD1601 (bispecific antibody, human IgG1, kappa) heavy: not shown light: DIQMTQSPSSLSASVGDRVTITCRASGNIHNYLTWYQQTPGKAPKLLIYNAKTLADGVPSRFSGSGSGTDYTFTISSLQPEDIATYYCQHFWSIPYTFGQGTKLQITRTVAAPSVFIFPPEIVLTQSPDFQSVTPKEKVTITCRASQDIGSELHWYQQKPDQPPKLLIKYASHSTSGVPSRFSGSGSGTDFTLTINGLEAEDAGTYYCHQTDSLPYTFGPGTKVDIKRTVAAPSVFIFPPSDEQLKSGTASVVCLLNNFYPREAKVQWKVDNALQSGNSQESVTEQDSKDSTYSLSSTLTLSKADYEKHKVYACEVTHQGLSSPVTKSFNRGEC | 26.4 pM | 3.6 pM | – | –
DVD1609 (bispecific antibody, human IgG1, kappa) heavy: not shown light: DIQMTQSPSSLSASVGDRVTITCRASGNIHNYLTWYQQTPGKAPKLLIYNAKTLADGVPSRFSGSGSGTDYTFTISSLQPEDIATYYCQHFWSIPYTFGQGTKLQITRTVAAPSVFIFPPEIVLTQSPDFQSVTPKEKVTITCRASQNIGSELHWYQQKPDQSPKLLIKYASHSISGVPSRFSGSGSGTDFTLTINGLEAEDAATYYCHQSDTLPHTFGQGTKVDIKRTVAAPSVFIFPPSDEQLKSGTASVVCLLNNFYPREAKVQWKVDNALQSGNSQESVTEQDSKDSTYSLSSTLTLSKADYEKHKVYACEVTHQGLSSPVTKSFNRGEC | 173 pM | 3.8 pM | – | –
DVD1603 (bispecific antibody, human IgG1, kappa) heavy: not shown light: DTQVTQSPSSLSASVGDRVTITCITSTDIDVDMNWYQQKPGKPPKLLISQGNTLRPGVPSRFSSSGSGTDFTFTISSLQPEDFATYYCLQSDNLPLTFGQGTKLEIKRTVAAPSVFIFPPEIVLTQSPDFQSVTPKEKVTITCRASQDIGSELHWYQQKPDQPPKLLIKYASHSTSGVPSRFSGSGSGTDFTLTINGLEAEDAGTYYCHQTDSLPYTFGPGTKVDIKRTVAAPSVFIFPPSDEQLKSGTASVVCLLNNFYPREAKVQWKVDNALQSGNSQESVTEQDSKDSTYSLSSTLTLSKADYEKHKVYACEVTHQGLSSPVTKSFNRGEC | 40.7 pM | 80.3 pM | – | –
DVD1607 (bispecific antibody, human IgG1, kappa) heavy: not shown light: ETTVTQSPSSLSASVGDRVTITCITSTDIDVDMNWYQQKPGKPPKLLISQGNTLRPGVPSRFSSSGSGTDFTFTISSLQPEDFATYYCLQSDNLPLTFGQGTKLEIKRTVAAPSVFIFPPEIVLTQSPDFQSVTPKEKVTITCRASQDIGSELHWYQQKPDQPPKLLIKYASHSTSGVPSRFSGSGSGTDFTLTINGLEAEDAGTYYCHQTDSLPYTFGPGTKVDIKRTVAAPSVFIFPPSDEQLKSGTASVVCLLNNFYPREAKVQWKVDNALQSGNSQESVTEQDSKDSTYSLSSTLTLSKADYEKHKVYACEVTHQGLSSPVTKSFNRGEC | 3.1 pM | 455 pM | – | –
DVD1605 (bispecific antibody, human IgG1, kappa) heavy: not shown light: DTVVTQSPAFLSVTPGEKVTITCITSTDIDVDMNWYQQKPDQPPKLLISQGNTLRPGVPSRFSSSGSGTDFTFTISSLEAEDAATYYCLQSDNLPLTFGQGTKLEIKRTVAAPSVFIFPPEIVLTQSPDFQSVTPKEKVTITCRASQDIGSELHWYQQKPDQPPKLLIKYASHSTSGVPSRFSGSGSGTDFTLTINGLEAEDAGTYYCHQTDSLPYTFGPGTKVDIKRTVAAPSVFIFPPSDEQLKSGTASVVCLLNNFYPREAKVQWKVDNALQSGNSQESVTEQDSKDSTYSLSSTLTLSKADYEKHKVYACEVTHQGLSSPVTKSFNRGEC | 8.2 pM | 242 pM | – | –
DVD1606 (bispecific antibody, human IgG1, kappa) heavy: not shown light: EIVLTQSPDFQSVTPKEKVTITCRASQDIGSELHWYQQKPDQPPKLLIKYASHSTSGVPSRFSGSGSGTDFTLTINGLEAEDAGTYYCHQTDSLPYTFGPGTKVDIKRTVAAPSVFIFPPDTVVTQSPAFLSVTPGEKVTITCITSTDIDVDMNWYQQKPDQPPKLLISQGNTLRPGVPSRFSSSGSGTDFTFTISSLEAEDAATYYCLQSDNLPLTFGQGTKLEIKRTVAAPSVFIFPPSDEQLKSGTASVVCLLNNFYPREAKVQWKVDNALQSGNSQESVTEQDSKDSTYSLSSTLTLSKADYEKHKVYACEVTHQGLSSPVTKSFNRGEC | – | – | 18.8 pM | 1630 pM
DVD1604 (bispecific antibody, human IgG1, kappa) heavy: not shown light: EIVLTQSPDFQSVTPKEKVTITCRASQDIGSELHWYQQKPDQPPKLLIKYASHSTSGVPSRFSGSGSGTDFTLTINGLEAEDAGTYYCHQTDSLPYTFGPGTKVDIKRTVAAPSVFIFPPDTQVTQSPSSLSASVGDRVTITCITSTDIDVDMNWYQQKPGKPPKLLISQGNTLRPGVPSRFSSSGSGTDFTFTISSLQPEDFATYYCLQSDNLPLTFGQGTKLEIKRTVAAPSVFIFPPSDEQLKSGTASVVCLLNNFYPREAKVQWKVDNALQSGNSQESVTEQDSKDSTYSLSSTLTLSKADYEKHKVYACEVTHQGLSSPVTKSFNRGEC | – | – | 3.1 pM | 2030 pM
DVD1608 (bispecific antibody, human IgG1, kappa) heavy: not shown light: EIVLTQSPDFQSVTPKEKVTITCRASQDIGSELHWYQQKPDQPPKLLIKYASHSTSGVPSRFSGSGSGTDFTLTINGLEAEDAGTYYCHQTDSLPYTFGPGTKVDIKRTVAAPSVFIFPPETTVTQSPSSLSASVGDRVTITCITSTDIDVDMNWYQQKPGKPPKLLISQGNTLRPGVPSRFSSSGSGTDFTFTISSLQPEDFATYYCLQSDNLPLTFGQGTKLEIKRTVAAPSVFIFPPSDEQLKSGTASVVCLLNNFYPREAKVQWKVDNALQSGNSQESVTEQDSKDSTYSLSSTLTLSKADYEKHKVYACEVTHQGLSSPVTKSFNRGEC | – | – | 8.2 pM | 4250 pM
DVD1602 (bispecific antibody, human IgG1, kappa) heavy: not shown light: EIVLTQSPDFQSVTPKEKVTITCRASQDIGSELHWYQQKPDQPPKLLIKYASHSTSGVPSRFSGSGSGTDFTLTINGLEAEDAGTYYCHQTDSLPYTFGPGTKVDIKRTVAAPSVFIFPPDIQMTQSPSSLSASVGDRVTITCRASGNIHNYLTWYQQTPGKAPKLLIYNAKTLADGVPSRFSGSGSGTDYTFTISSLQPEDIATYYCQHFWSIPYTFGQGTKLQITRTVAAPSVFIFPPSDEQLKSGTASVVCLLNNFYPREAKVQWKVDNALQSGNSQESVTEQDSKDSTYSLSSTLTLSKADYEKHKVYACEVTHQGLSSPVTKSFNRGEC | – | – | 3.3 pM | 133 pM
DVD1610 (bispecific antibody, human IgG1, kappa) heavy: not shown light: EIVLTQSPDFQSVTPKEKVTITCRASQNIGSELHWYQQKPDQSPKLLIKYASHSISGVPSRFSGSGSGTDFTLTINGLEAEDAATYYCHQSDTLPHTFGQGTKVDIKRTVAAPSVFIFPPDIQMTQSPSSLSASVGDRVTITCRASGNIHNYLTWYQQTPGKAPKLLIYNAKTLADGVPSRFSGSGSGTDYTFTISSLQPEDIATYYCQHFWSIPYTFGQGTKLQITRTVAAPSVFIFPPSDEQLKSGTASVVCLLNNFYPREAKVQWKVDNALQSGNSQESVTEQDSKDSTYSLSSTLTLSKADYEKHKVYACEVTHQGLSSPVTKSFNRGEC | – | – | 4.6 pM | 1000 pM

Further lines, results first:

C-terminal VD IL-17 Neutralization Assay EC50 (Recombinant Human IL-17) | N-Terminal VD IL-1β Neutralization Assay EC50 (Recombinant Human IL-1β) | N-terminal VD IL-17 Neutralization Assay EC50 (Recombinant Human IL-17) | C-Terminal VD IL-1β Neutralization Assay EC50 (Recombinant Human IL-1β) | Binder
300 pM | 4.1 pM | – | – | DVD1611 (bispecific antibody, human IgG1, kappa) heavy: not shown light: DIQMTQSPSSLSASVGDRVTITCRASGNIHNYLTWYQQTPGKAPKLLIYNAKTLADGVPSRFSGSGSGTDYTFTISSLQPEDIATYYCQHFWSIPYTFGQGTKLQITRTVAAPSVFIFPPEIVLTQSPDFQSVTPKEKVTITCRASQNIGSELHWYQQKPDQSPKLLIKYASHSISGVPSRFSGSGSGTDFTLTINGLEAEDAATYYCHQSDTLPHTFGQGTKVDIKRTVAAPSVFIFPPSDEQLKSGTASVVCLLNNFYPREAKVQWKVDNALQSGNSQESVTEQDSKDSTYSLSSTLTLSKADYEKHKVYACEVTHQGLSSPVTKSFNRGEC
101 pM | 246 pM | – | – | DVD1613 (bispecific antibody, human IgG1, kappa) heavy: not shown light: DTQVTQSPSSLSASVGDRVTITCITSTDIDVDMNWYQQKPGKPPKLLISQGNTLRPGVPSRFSSSGSGTDFTFTISSLQPEDFATYYCLQSDNLPLTFGQGTKLEIKRTVAAPSVFIFPPEIVLTQSPDFQSVTPKEKVTITCRASQNIGSELHWYQQKPDQSPKLLIKYASHSISGVPSRFSGSGSGTDFTLTINGLEAEDAATYYCHQSDTLPHTFGQGTKVDIKRTVAAPSVFIFPPSDEQLKSGTASVVCLLNNFYPREAKVQWKVDNALQSGNSQESVTEQDSKDSTYSLSSTLTLSKADYEKHKVYACEVTHQGLSSPVTKSFNRGEC
– | – | 14.2 pM | 802 pM | DVD1614 (bispecific antibody, human IgG1, kappa) heavy: not shown light: EIVLTQSPDFQSVTPKEKVTITCRASQNIGSELHWYQQKPDQSPKLLIKYASHSISGVPSRFSGSGSGTDFTLTINGLEAEDAATYYCHQSDTLPHTFGQGTKVDIKRTVAAPSVFIFPPDTQVTQSPSSLSASVGDRVTITCITSTDIDVDMNWYQQKPGKPPKLLISQGNTLRPGVPSRFSSSGSGTDFTFTISSLQPEDFATYYCLQSDNLPLTFGQGTKLEIKRTVAAPSVFIFPPSDEQLKSGTASVVCLLNNFYPREAKVQWKVDNALQSGNSQESVTEQDSKDSTYSLSSTLTLSKADYEKHKVYACEVTHQGLSSPVTKSFNRGEC
– | – | 23.8 pM | 153 pM | DVD1612 (bispecific antibody, human IgG1, kappa) heavy: not shown light: EIVLTQSPDFQSVTPKEKVTITCRASQNIGSELHWYQQKPDQSPKLLIKYASHSISGVPSRFSGSGSGTDFTLTINGLEAEDAATYYCHQSDTLPHTFGQGTKVDIKRTVAAPSVFIFPPDIQMTQSPSSLSASVGDRVTITCRASGNIHNYLTWYQQTPGKAPKLLIYNAKTLADGVPSRFSGSGSGTDYTFTISSLQPEDIATYYCQHFWSIPYTFGQGTKLQITRTVAAPSVFIFPPSDEQLKSGTASVVCLLNNFYPREAKVQWKVDNALQSGNSQESVTEQDSKDSTYSLSSTLTLSKADYEKHKVYACEVTHQGLSSPVTKSFNRGEC
